In paper doi:10.1101/871988:

Target: recombinant human scavenger receptor B1 (SRB1) (human) (UniProt Q8WTV0)
Test: SPR

UniProt Q8WTV0, sequence (Q8WTV0 whole entry): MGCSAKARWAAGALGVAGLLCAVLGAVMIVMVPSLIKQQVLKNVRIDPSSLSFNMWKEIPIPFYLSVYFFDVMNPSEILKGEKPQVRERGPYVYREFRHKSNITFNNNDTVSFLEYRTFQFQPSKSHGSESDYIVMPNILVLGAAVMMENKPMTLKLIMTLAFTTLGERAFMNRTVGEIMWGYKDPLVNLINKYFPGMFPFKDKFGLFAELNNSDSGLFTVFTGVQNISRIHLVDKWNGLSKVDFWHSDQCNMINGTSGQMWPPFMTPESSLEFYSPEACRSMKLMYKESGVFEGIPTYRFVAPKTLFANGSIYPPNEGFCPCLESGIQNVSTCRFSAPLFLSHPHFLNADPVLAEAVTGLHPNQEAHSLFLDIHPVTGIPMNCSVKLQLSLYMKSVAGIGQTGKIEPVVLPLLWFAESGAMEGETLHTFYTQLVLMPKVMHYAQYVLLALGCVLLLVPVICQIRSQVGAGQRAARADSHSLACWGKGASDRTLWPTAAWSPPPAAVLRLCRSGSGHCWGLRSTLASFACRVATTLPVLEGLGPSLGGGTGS

Row | Substance | Kd
1 | human high density lipoprotein (HDL) (from UniProt P02647 19-267) (complex) | 18.7 nM
2 | recombinant dengue virus non-structural protein 1 (DENV NS1) (natural protein) | 47 nM
